The record followed here is US20220296690A1 (Pieris, published 2022).

The target of the test is T1, Recombinant human CTLA-4 (human, UniProt P16410 36-161, limits assumed).
T1 sequence (looked up): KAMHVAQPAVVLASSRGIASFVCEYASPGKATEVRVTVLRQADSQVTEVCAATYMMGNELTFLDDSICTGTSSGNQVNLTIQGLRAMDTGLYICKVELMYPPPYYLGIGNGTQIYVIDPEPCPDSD
Put plainly: ELISA; recombinant human CTLA-4 coated at 5 µg/mL, T cell culture supernatant added, detected with rabbit anti-NGAL polyclonal antibody and goat anti-rabbit IgG-HRP. As to the method: FIG. 2: Detection of functional T-cell secreted CTLA-4 antagonist by ELISA. The supernatant of human peripheral blood T cells, mock-transduced or transduced with pSIN-(NFAT)6-αCTLA-4 and cultured under activatory conditions (cf. Example 1 and FIG. 1) was analyzed for the presence of functionally active CTLA-4 antagonist SEQ ID NO: 28 by ELISA. Recombinant human CTLA-4 was coated on an ELISA plate as described in Example 1, and culture supernatants of transduced and mock-transduced T cells were added. Plate-bound SEQ ID NO: 28 was detected by primary staining with an anti-NGAL polyclonal antibody from the rabbit, secondary staining using goat anti rabbit IgG-HRP and addition of a chromogenic HRP substrate as described in Example 1.
Supernatants were analyzed for the presence of functionally active Anticalin-based CTLA-4 antagonist by ELISA as described in the following: Recombinant human CTLA-4 at a concentration of 5 μg/mL in PBS was added to each well of a 384 well ELISA plate and incubated over night at 4° C. […] Subsequently, rabbit anti-NGAL polyclonal antibody at a concentration of 1 μg/mL in PBS/0.1% (w/v) Tween20/2% (w/v) BSA was added, and bound antibody was detected using goat anti-rabbit IgG-HRP in a dilution of 1:5,000 in PBS/0.1% (w/v) Tween20/2% (w/v) BSA. […] Fluorescence signals in RFU (relative fluorescence units) were measured using a plate fluorescence reader.
On the technique in general: ELISA stands for enzyme-linked immunosorbent assay.

B1: Anticalin-based CTLA-4 antagonist with Strep-tag II, mature processed secreted form (SEQ ID NO: 28) (designed binder)
chain: QDSTSDLIPAPPLSKVPLQQNFQDNQFQGKWYVVGLAGNRILRQDQHPMLMYATIYELKEDKSYQVTSVISSHKKCLYPIATFVPGSQPGEFTLGNIKSYGDKVSYLVRVVSTNYNQHAMVFFKHADTNYESFSITLYGRTKELTSELKENFIRFSKSLGLPENHIVFPVPIDQCIDGSAWSHPQFEK
notes: also called anti-CTLA-4 Anticalin; αCTLA-4
For B1, the binding result was “binds”.
